The values that follow come from article PMC12852372, “Phosphorylation-driven conformational switching of the ArnA–ArnB complex involved in archaeal motility regulation” (Frontiers in Microbiology, 2025).

In this assay the target is T1, phosphorylated ArnB (ArnB~P), phosphorylated by the kinase ArnC (Sulfolobus acidocaldarius, UniProt Q4J9H3 2-380, phosphothreonine at T353, T363 and T375 (almost complete within the first 5 min with ArnC); phosphothreonine at T322 and T335 only after 15 min).
T1 construct: ArnB of Sulfolobus acidocaldarius, Saci_1211; also called tagged ArnB; source: E. coli BL21(DE3) Rosetta; phosphorylated by ArnC in the mixed lysate (ATP, MnCl2, 55 °C, 5-60 min); in lysate for the pull-downs; purified (Ni-NTA, SEC) for HDX-MS; not shown: His6, C-terminal, kept
T1 sequence: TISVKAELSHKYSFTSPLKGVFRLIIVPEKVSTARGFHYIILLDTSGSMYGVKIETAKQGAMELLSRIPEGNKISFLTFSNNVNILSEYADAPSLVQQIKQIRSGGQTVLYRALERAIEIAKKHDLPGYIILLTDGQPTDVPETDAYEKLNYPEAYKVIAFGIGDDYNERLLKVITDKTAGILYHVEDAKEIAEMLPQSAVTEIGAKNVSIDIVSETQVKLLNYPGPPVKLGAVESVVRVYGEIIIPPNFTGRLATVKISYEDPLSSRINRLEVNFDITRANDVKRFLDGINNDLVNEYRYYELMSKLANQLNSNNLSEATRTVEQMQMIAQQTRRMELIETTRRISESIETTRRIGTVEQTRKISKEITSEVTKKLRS
Kind of assay: HDX-MS; ArnA, ArnB, ArnB~P and ArnA/ArnB~P (isolated by Ni-NTA via the His6 tag of ArnB, then SEC); 50 μM stocks in 20 mM Tris-Cl pH 8.0, 150 mM NaCl; 25 °C; 10-10,000 s. The following applies: both partners purified.

B1: ArnA (Saci_1210) (natural protein, Sulfolobus acidocaldarius)
chain: TWKCNLCGYENDDDALFCIKCGAQKSSEAQQLPQQQPSEPQAQGVVTQQQVVTNPPVQAQVATPQQPAQQPVLPQPEPAQPQPVSSTPAPQQASQPTNRYYIYFIQTPNENLVNKKVLLNFDLFPSVSMGRSPENIVIVPDSEVSRKHAVIYLDNSELYIEDLNSTNGTYVYDGKQFTPIKGKQKIEPNSIIKLGNQTIVRILKE
notes: ArnA of Sulfolobus acidocaldarius, Saci_1210; N-terminal zinc-finger (ZnF) domain, disordered linker (S28-N99) and C-terminal FHA domain; In the crystal (PDB 8S05) only the ZnF domain (P16-K42) is defined by density; also called StrepII-tagged ArnA; source: E. coli BL21(DE3) Rosetta; purified (heat treatment, Ni-NTA, SEC) for crystals, SAXS and HDX-MS; co-expressed with His6-ArnB, in lysate, for …
In the case of B1, the binding result is listed as “binds”.
